The values below come from the DeepSol protein solubility set.

This data set can be described thus: soluble on expression in E. coli; label from the status in PepcDB or PDB records.
Consider “WGYQTDGRFQNFDEINTYPIQNGDNGNSKELPGDYILKDVNGDGVVNDLDKTPLFWSGSPLIHYGFNVEASWKNFDFYALFQGSALYTVQFDEVYAKMLCFKGGNTPEYFYDRWHLSDPYDANSEWIPGEWPAIRLEQDMGSFYTRDSQIWRKNASYLRLKTIEIGYTFSPRLMHKLGIGSLRIYANGNNLFTVCDPFVKAFDPEKIEGDYSAGLNYPLNKSFNFGLTLNF”, for which the “soluble on expression in E. coli” value is on record as “not soluble”. Consider “MTNFEYYRDFDDFQRRETINFFLSKFPLASQKQLQDFLEQARQAYVQLRQTNPAHLDWNQTLLYLAQKFLPEKQSEKDRLKKILVLQEQLKVRYEGEIKRQSQQNSELLIQLGQRDEEIIQMQQLFKEKERQLEVYQKQLNEAKEYNHKLEEHYNKTLEEALKEYEQQCTDAIHRRDEEIQAIFTSKLNEKNSEITQLQTYLQSAVDENEALQKQHKLVLFKNQKYEKMVSDLQVDLARIQEINNSLTSEKRDFQRANNDLVKQYNKLKNRLEQKLGEITNAQVNGQTHTVSLADTSQQFHRPQEAVIPQTQVISYTLDDMDDDMEVEETPPTTNKDLPRGATQPKRNSIKRVSKLID”, for which the “soluble on expression in E. coli” value is listed as “soluble”. For the sequence “GPGSMYKLPIEAQFNLIEEEFAAIEASTMNPRLYNFTTSNANPTKNRYINVLANEETIFPPTSLTSAPPTTGGSRLSTSGSPPSMASAPSPMKSLTGRAQKIWGVAGQRLFGTRRGGTLPRDVEGNEKFTTGCVTKKYPQWYINANVVDTSVEPVFVASQAPVQECIDDFLAVIYSCEVTLVLMLTELEEAGFVKADRYWPEDSAPADRIESFGSMCVYKDEQDPYTCDAAHELVRRSFYIRPSAASQARAHKIVMYQYVGWPDRGVPDSTESFEELLKIIQGYVMASPAPRVPAAGPESAAHSSIATNSGGDGSTSNTGSGEGSGKLTPPVFVHCSAGIGRTGTLIGAYTAVKLTEAGLLTNTSIRRIVTDMRKARFGMVQRVEQYMFLYMIVLQHMGVDARKFSARMQPRADLYNMRWMEARQKALLGARAAKR”, the “soluble on expression in E. coli” value is listed as “not soluble”.

For “MLNEKAIQDVDLYFQNIHGPEGRLASNETFDIVPGLSKDGAVQYQTYQFNEAPKHLQKQVKAGRILMERFVAVASAAVNKKAPSNKEKYHYDIWKEVSNQLIPAFFTDPIKGEQNLNTTVKGVEVAKSVIQFAGNVIAGNVTGFATFLQNFGNGLSAEMNKTQANYNYLYAYSTHDLFQDTSGNVFYKPRFLIYGTHFKQEQKKIATSCASYQEVNLEFGVDTVGGTFRIEEYFSNETFKKKVDNFLDKYEGKAIDDADSYFDDIFNGVKPNKNYVYHHHHHH”, the “soluble on expression in E. coli” value was “soluble”. As for “MSRATYIIGALAGSAVVAYVCDKVISDDKLFGGTTPGTITNKEWGAATEERLQAWPRVAGPPVVMNPISRQNFIVKSRPE”, the “soluble on expression in E. coli” value is given as “not soluble”. Turning to “MGSDKIHHHHHHVKFRVERDVLAEAVTWTARSLSPRPPVPVLSGLLLKAEAGTVSLSSFDYETSARLEIPADISVEGTILVSGRLLADICRSLPSAPVDVETDGNKVTLTCRRSSFHLATMPEAEYPPLPALPTISGTVPGDSFAQAVSQVIIAASKDDTLPILTGVRMEIEDDLITLLATDRYRLAMREVPWKPVTPGISTSALVKAKTLNEVAKTLGNSGDINLALADDDSRLIGFESGGRTTTSLLVDGDYPKIRSLFPDATPIHATVQTQELVEAVRRVSLVAERNTPVRLAFTDGQLHLDAGTGEDAQASEELEAQLTGDEITVAFNPHYLIEGLSVIETKFVRFSFTTAPKPAMITAQVDADGEDQDDYRYLVMPVRLPN”, the “soluble on expression in E. coli” value was “not soluble”. “MALLRIFDAHCDALLKLWEDPAREYTDDPAIEANAVRLMEGGVRAQCFAIFVGPNIPFDQKFQVALQQAELFHEKILKKHPQFSFIERWDDLLTLDADQIGAILTLEGADPFGDDPTKLKTLYRLGVRSLGLTWNQANLCADGVGEPRGGGLTEWGKAVVSLNNEHHVLTDVSHLSERGFWDVIEYAQFPVATHSNAKAICKHRRNLTDAQLKALIEAGGFIGIVFHPHFLTGTDDASIDDVMKHIEHICSLGGQKHVGFGSNFDGIPCFVDGLEHAGRFQWFMDELLKRYDEELVRGFAWDNFLKATPISYVEGHHHHHH”: the “soluble on expression in E. coli” value was “soluble”. Then “TKNWSWTASANAAWQKVRIKNLTLTPGAPSPDTEVGPWIDAYQMQVFSTDYAPYSFYLYKQLYDAETGQPIEGLYADLDGDGEITNKDRYHHHSPAPDWILGFSTSLRYKKWTLSTSLRANIGGYIFNGMAMNTGAWETMSYNDYQLNNLNRSFLDTRFTKRQFLSDHYLENASFLKMDNLQLSYDFGRIYKTIGLHASAMVQNVFTVTKYKGVDPETANGVDTSVYPRPRTYSITIGLNF”, with “not soluble”; and “MGSDKIHHHHHHMTNMKQLCLICLAFICLFFLDSCGNKNTFRVEGSIAGYEDTAQVYLTKIIGSDLSVLDSVNPDRKGRFSFVAQADSTPSFYQIKLRKQHINFAARIGSEINIQVGRNSFSDYVIEDNQGPDNNNIRKIALLKEQADNRLDHLYRSYQENKLDASQYQDTIAKVIDEFKTTLRNDFIFQDPKSPASYFALFQQKDGLLYFNVYDPMDAKAFAAVATAYDTYYPTSSYTKSVRDLSLLGIAAMRRDRVAKDITTRKIEVKDIPETILIDRKGNEQPLSKVVETNDRVLIVFTSYQAEWSPSLVKEQRALYQRHCNNGFQIYEISVDKDLYFWQNATRTLPWITVNDSEGKAALSFNVRSLPTFFLIQDGELKRLQRLESL”, with “not soluble”. Turning to “VRQKGIDIIFMLDISNSMLARDTAPDRLTHAKTELLQISRRLGDGRKALLLFAGTPVVQCPLTDDEEDFEILLDMAAPELITTQGTDYRRAFDAALKLTNSGGELSSNETVLVLASDGEDHGNDLGDIATAMKTRGVHLHVIGVGGVQPVPIPMQGGPKRDQQGKIVLTSFKPEPLASLIKTAKGKFYYSRPDAPVHDAVADDIAAEAAEA”, the “soluble on expression in E. coli” value is “not soluble”. Then “MPVETREISVTAKEDCGIVDITGIVSEEVEKSEIKNGTVTVFCVGSTGAISTMEFESNLSKDISEILDKLIPLNEDYHHHKTWGDFNGGSHLRSFLLGPSLTVPFVEKKLTLGTWQQIVYINFDRIEKVRKIVLQIIGDLLEHHHHHH”, with “soluble”; and “MWFIMMDTKDPPTLLDLATQNLLSNEHAAIQALEEIPRELFVPLFTAAFTGRHKNILTAIVKAWPFACLHIGALSVQEPERELLKALIESLQFLLALNSATRSPKLRILDLRQDAGCKTVCPEISTNSTICFRSCAHSEHSIFKIEGQESLSSSKSEAQPSRLPMELIVDISLDGTLRERNFFALLQNKVEQSLGSLHLCCRDLQINNLCECRHALSHLDLKCVDHLAVDESPLTEVTKLLSHTIQLDSLSLSKIACRSLNGRTFRNFITQLSRMNHLKELSLSSFCLTDHLENVLRVLSADLEFLYLPFCGLSYSDFKFLSECSQVSHLKLLNVNNNPIYWEDCEPFYYLLQNVSSTLQHLKICYCFLTDSTISVLIPALTRCSQLRVLHFYSNQITMGMLMRILELLTPLKELKHVIYPIPVHCYGRWHFQGSLDRQKVEDVQRQLNLMLQEAERSDMNWITYSD”, with “not soluble”. The result for “MTDVTSPVVDEKPCFGANPQIFKLGLGKQHILAHDIGQGSQCRNLPTCRCEGLDLHFWRKMCKNCGCRMDEHDVVLPNEFDHAQIVIGRLFGAREHFEKVLTKPGMYKPNEQNETKENNMMSTRSQPTAVYNYKMASSDSESERGGSNNKENVQYAWAPLPDKNLVSRYMKALPEDERPLVGSKGEQNRKSRLQFQLPLYDCNVEDARFVEEKDVKTLQNFVENVRNNVIGVGRVVEIGKDSDNYGDNENTNEFEKSMTAALKGLKIGETDCKDCNEMMETGDIGVECHHHSTTDTYHPNCFRCETCRQLLVDNIYFFYKNKYYCGRHYADQLYPRCAGCDELIFANEYTFAEEKSWHFDHFACYKCDFKLGGSRYMTRDENPFCLDCYLKHFAKTCDTCQSKIGPDEKRLNYNETHWHAEERCFQCVQCKMNLIGKKFMLKNHKLLCSSQCKANYNSANPDDQL” reads “not soluble”; that for “MSGSYDEASEEITDSFWEVGNYKRTVKRIDDGHRLCNDLMSCVQERAKIEKAYAQQLTDWAKRWRQLIEKGPQYGSLERAWGAMMTEADKVSELHQEVKNSLLNEDLEKVKNWQKDAYHKQIMGGFKETKEAEDGFRKAQKPWAKKMKELEAAKKAYHLACKEERLAMTREMNSKTEQSVTPEQQKKLVDKVDKCRQDVQKTQEKYEKVLEDVGKTTPQYMEGMEQVFEQCQQFEEKRLVFLKEVLLDIKRHLNLAENSSYMHVYRELEQAIRGADAQEDLRWFRSTSGPGMPMNWPQFEEWNPDLPHTTAKKEKQPKKAEGATLSNATGAVESTSQAGDRGSVSSYDRGQTYATEWSDDESGNPFGGNEANGGANPFEDDAKGVRVRALYDYDGQEQDELSFKAGDELTKLGEEDEQGWCRGRLDSGQLGLYPANYVEAI”, “soluble”. For the sequence “MSKTRMEKLKTLKTIAETLNQGHDIKATLDEVLKELLSLTNLQSGWIFLIEEDGSYTLAADAYLPPALSRKEKVLMCEGECYCLTKFNNGGLRKAANIMNCKRIESAENLHCFDTEGITHHATVPLEDGDRRFGLLNVAAAGKTMFDEEELHLLESVAFQIGTAIQRMRLSE”, the “soluble on expression in E. coli” value was “soluble”. Then “MSLDKIFVEEAVSELHTLQDMIRWTVSRFNAANLFYGQGTDNAWDEAVQLILPTLYLPIDVPPHVLSSRLTSSERLRVVERVIKRINDRTPVAYLTNKAWFCGLEFFVDSRVLVPRSPIGELIQNRFEPWLTEEPTRIMDLCTGSGCIAIACANAFPEAEVDAIDISVDALNVAEQNIQDHGLEQQVFPIRSDLFRDLPQEQYDLIVTNPPYVDQEDMDSLPSEFRHEPELGLAAGSDGLKLARRILANAPLYLKENGILVCEVGNSMVHMMEQYPHIPFTWLEFENGGHGVFLLTREQLIDCAADFALYKDEGHHHHHH”, with “soluble”; and “MSKKTPLNEIAEFDVSDYLRDDEDIAEYLTQVLAEGDSNELLRAIGYIAKARGITQLAKDTGLGRESLYKAFRAGSKPQFETVFKVLHALNINLKAIPKEVVSTRV”, with “not soluble”. With “MNEVLELKEELLQIKNNNYAVPEDVDAYPYAQWMLDYIGSPDAELRDDLIYSTLHTWITNDVFRQKELRGLMLQAISPDYLFYKIGEKGTDSVFKRAFSVLIPPLILSVHEREPLLSEEQLYSVAEQVLEYVYLEEDVRGYVEGKGWAHSTAHAADALDALARTIQNREFSYAILAAVRQKVRLSDYVYVHFEDERLVKPIMSLHNQKLLTEEEWSNWLHSIATVEDIRHPQHAILVQNIRSFLRSLYFRVLETEGSTAFTDDILETLKGLRRY”, the “soluble on expression in E. coli” value is recorded as “not soluble”. Then “MEKLTKRQQDILDFIKLKVQEKGYPPSVREIGQAVGLASSSTVHGHLSRLEEKGYIRRDPTKPRAIEILGEDRMDTETQSVIQVPIVGKVTAGLPITAVESVEEHFPLPASIVAGADQVFMLRISGDSMIEAGIFDGDLVVVRQQQSAYNGEIVVALTEDNEATVKRFYKEKDHFRLQPENSSLEPIILKQVSVIGKVIGVYRDLH”, with “not soluble”.

As to “MERCGWVSQDPLYIAYHDNEWGVPETDSKKLFEMICLEGQQAGLSWITVLKKRENYRACFHQFDPVKVAAMQEEDVERLVQDAGIIRHRGKIQAIIGNARAYLQMEQNGEPFVDFVWSFVNHQPQVTQATTLSEIPTSTSASDALSKALKKRGFKFVGTTICYSFMQACGLVNDHVVGCCCYPGNKPLEHHHHHH”, the “soluble on expression in E. coli” value is on record as “soluble”. Then “MAAFSQLYDLHINILFNYGLKLTIDKELLKDCIHDIFVKLYTKKDELGTIDNLKSYLFISLKNKLCDELRKRMYMSDTAIEDVNAVAPTDVEDDYMEEEQRKNEFSLVKRLLDQLSPRQREALTLYYIEEKKYEDICEIMNMNYQSVRNLMHRGLTKLRSLAS”, with “not soluble”.
